Consider 10 molecules from patent US20230250134A1 (University of Washington, published 2023).

Read-outs that look alike come from different tables or passages of the source.

The target in assay [1] is T1, SARS-COV-2 Spike glycoprotein receptor binding domain (RBD) (SARS-CoV-2, UniProt P0DTC2 319-541).
The target in assay [2] is SARS-COV-2 Spike glycoprotein (SARS-CoV-2, UniProt P0DTC2 14-1208). The assay can be described thus: estimated Kd for Spike (avidity), Table 10.
The target in assay [3] is SARS-COV-2 spike protein on authentic virus, strain 2019 n-COV/USA_WA1/2020 (SARS-CoV-2, UniProt P0DTC2 14-1273). As to the kind of experiment: cell-based or functional assay.
The target in assay [4] is T1, SARS-COV-2 Spike glycoprotein receptor …. As to the kind of experiment: estimated Kd for RBD, Table 10.

B1: LCB1_v1.1-PRO-LCB3_v1.2 (1PRO3) (designed binder)
chain: DKENILQKIYEIMKTLDQLGHAEASMQVSDLIYEFMKQGDERLLEEAERLLEEVERAGSGGSGGSGGSPVPSTPPTPSPSTPPTPSPSPVPSTPPTPSPSTPPTPSPSPVPSTPPTPSPSTPPTPSPSASGNDDELHMQMTDLVYEALHFAKDEEIQKHVFQLFEKATKAYKNKDRQKLEKVVEELKELLERLLS
For the molecule B1, the Kd in assay [1] was 0.2 nM; in assay [2], 0.1 nM.

B2: LCB1-6GS-LCB1 (designed binder)
chain: DKEWILQKIYEIMRLLDELGHAEASMRVSDLIYEFMKKGDERLLEEAERLLEEVERGGSGGSDKEWILQKIYEIMRLLDELGHAEASMRVSDLIYEFMKKGDERLLEEAERLLEEVER
For B2, the “SARS-CoV-2 Neutralization IC50” value in assay [3] was 0.01 nM. Further, the Kd in assay [4] is 0.2 nM.

B3: LCB1-3 (designed binder)
chain: DKEWILQKIYEIMRLLDELGHAEASMRVSDLIYEFMKQGDERLLEEAERLLEEVER
B3: the “SARS-CoV-2 Neutralization IC50” value in assay [3] was determined as 0.01 nM. Moreover, the Kd is 0.2 nM in assay [4] and 0.1 nM in assay [2].

B4: LCB6-1 (designed binder)
chain: DREQRLVRFLVRLASKFNLSPEQILQLFEVLEELLERGVSEEEIRKQLEEVAKELG
Take B4: the “SARS-CoV-2 Neutralization IC50” value in assay [3] came out at 0.01 nM. In addition, the results for the Kd in assay [4] and in assay [2] were 0.2 nM and 0.1 nM, respectively.

B5: LCB3_v1.2-PRO-LCB1_v1.1 (3PRO1) (designed binder)
chain: NDDELHMQMTDLVYEALHFAKDEEIQKHVFQLFEKATKAYKNKDRQKLEKVVEELKELLERLLSAGSGGSGGSGGSPVPSTPPTPSPSTPPTPSPSPVPSTPPTPSPSTPPTPSPSPVPSTPPTPSPSTPPTPSPSASGDKENILQKIYEIMKTLDQLGHAEASMQVSDLIYEFMKQGDERLLEEAERLLEEVER
On to B5, for which the Kd in assay [1] was 0.2 nM; in assay [2] it was 0.1 nM.

B6: LCB1_v1.1-GS-LCB3_v1.2 (1GS3) (designed binder)
chain: DKENILQKIYEIMKTLDQLGHAEASMQVSDLIYEFMKQGDERLLEEAERLLEEVERGGGGSGGGGSGGGGSGGGGSGGGGSGGGGSGGGGSGGGGSGGGGSGGGGSGGGGSGGGGSGGGGSGGGGSGGGGSNDDELHMQMTDLVYEALHFAKDEEIQKHVFQLFEKATKAYKNKDRQKLEKVVEELKELLERLLS
On to B6, for which the Kd in assay [1] is 0.2 nM; in assay [2] it was 0.1 nM.

B7: LCB3_v1.2-GS-LCB1_v1.1 (3GS1) (designed binder)
chain: NDDELHMQMTDLVYEALHFAKDEEIQKHVFQLFEKATKAYKNKDRQKLEKVVEELKELLERLLSGGGGSGGGGSGGGGSGGGGSGGGGSGGGGSGGGGSGGGGSGGGGSGGGGSGGGGSGGGGSGGGGSGGGGSGGGGSDKENILQKIYEIMKTLDQLGHAEASMQVSDLIYEFMKQGDERLLEEAERLLEEVER
B7: the Kd was 0.2 nM in assay [1] and 0.1 nM in assay [2].

B8: LCB6-2 (designed binder)
chain: DREQRLVRFLVRLASKFNLSMEQILILFDVLEELLERGVSEEEIRKILEEVAKEL
Regarding B8, in assay [3], the “SARS-CoV-2 Neutralization IC50” value came to 0.01 nM. The Kd in assay [4] is 0.2 nM; in assay [2], 0.1 nM.

B9: LCB3_v1.2-10GS-LCB1_v1.1 (LCB3-GS10-LCB1) (designed binder)
chain: NDDELHMQMTDLVYEALHFAKDEEIQKHVFQLFEKATKAYKNKDRQKLEKVVEELKELLERLLSGGSGGSGGSGDKENILQKIYEIMKTLDQLGHAEASMQVSDLIYEFMKQGDERLLEEAERLLEEVER
In the case of B9, the Kd in assay [1] was 0.2 nM; in assay [2], 0.1 nM.

B10: LCB1-12GS-LCB1 (designed binder)
chain: DKEWILQKIYEIMRLLDELGHAEASMRVSDLIYEFMKKGDERLLEEAERLLEEVERGGSGGSGSGGSGDKEWILQKIYEIMRLLDELGHAEASMRVSDLIYEFMKKGDERLLEEAERLLEEVER
As for B10, in assay [3], the “SARS-CoV-2 Neutralization IC50” value was determined as 0.01 nM. In assay [4], the Kd is 0.2 nM.
